This note sets out measurements from patent US20210317213A1 (AMBRX, published 2021).

What is called EC50 is the concentration that produces a half-maximal response. A word on the Kd: it is the concentration at which binding is half-saturated.

The target of experiment [1] is T1, human CD3 (human, UniProt P07766 23-207).
T1 construct: whole, on cells; also called CD3 on human T-cells
The experiment in a line: cell binding, human PBMC.

Experiment [2] concerns the target T1, human CD3. The experiment in a line: cell binding, human T-cells. The arrangement: Bmax: unit not given here.
For experiment [3], the target named is T2, cyno CD3 (cyno (cynomolgus monkey), UniProt Q95LI5 22-198).
T2 construct: whole, on cells; also called CD3 on Cynomolgus T-cells
T2 sequence (Q95LI5 22-198): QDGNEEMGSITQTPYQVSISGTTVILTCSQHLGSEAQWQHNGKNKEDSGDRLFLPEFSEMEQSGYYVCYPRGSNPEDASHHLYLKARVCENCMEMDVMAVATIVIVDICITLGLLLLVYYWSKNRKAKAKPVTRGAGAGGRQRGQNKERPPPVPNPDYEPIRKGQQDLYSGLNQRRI
The experiment in a line: cell binding, cynomolgus T-cells.

Experiment [4] addresses T2, cyno CD3. Description: cell binding, activated cyno PBMC.
The target of experiment [5] is Folate receptor-alpha (FOLR1) (human) (UniProt P15328). Description: summary table; FRα affinity over CD3 affinity.
Sequence of Folate receptor-alpha (FOLR1) (human) (P15328 25-234): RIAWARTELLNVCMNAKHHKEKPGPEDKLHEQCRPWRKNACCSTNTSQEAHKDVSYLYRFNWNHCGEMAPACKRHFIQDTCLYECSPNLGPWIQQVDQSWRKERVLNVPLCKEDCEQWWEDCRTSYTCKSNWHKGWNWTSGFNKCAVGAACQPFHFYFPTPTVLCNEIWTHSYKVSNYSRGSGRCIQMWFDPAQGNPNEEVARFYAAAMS
The target in experiment [6] is T1, human CD3. The experiment in a line: cell binding, activated human PBMC.
Experiment [7] has as its target Folate receptor-alpha (FOLR1) (human) (UniProt P15328). Description: summary table; cell binding through the folate moiety.
In experiment [8] the target is T1, human CD3. Description: cell binding, human CD3, 50 nM SFA present.
The target of experiment [9] is T1, human CD3. Description: summary table; cell binding EC50, human PBMC.
The target of experiment [10] is T2, cyno CD3. Description: cell binding, activated cyno PBMC; E. coli protein.
Experiment [11] concerns the target T1, human CD3. Description: cell binding, activated human PBMC; E. coli protein.
Experiment [12] deals with Folate receptor-alpha (FOLR1) (human) (UniProt P15328). The experiment in a line: cell binding, FOLRα-expressing KB cells; through the folate moiety.
Experiment [13] has as its target T2, cyno CD3. The experiment in a line: cell binding, cyno CD3 (activated cyno PBMC); cyno CD3 (second number of the cell). How it is done:
(§1) Testing for CD3 binding with activated human and cyno PBMC: To distinguish between the humanized anti-CD3 antibodies generated, binding to human CD3 was tested using activated human PBMCs (n=2). The activation of PBMCs and subsequent fluorescence-based CD3 binding assays were followed as described previously (see for example, Angew Chem Int Ed Engl, 52(46):12101-12104, 2013). […] The binding of the remaining 6 humanized antibodies to both human and cyno CD3 using activated human and cyno PBMCs, respectively, was titrated. […] The six (6) humanized anti-CD3 antibodies were obtained as follows: Fab1, Fab2 and Fab3 wildtype were generated by combination of LC ((vL1.2+CL); (SEQ.ID. NO:7)) and HC ((vH1.2+CH1); (SEQ.ID. NO:1)), ((vH1.1+CH1); (SEQ.ID. NO:2)) and ((vH1.0+CH1); (SEQ.ID. NO:3)) respectively. Fab4, Fab 5 and Fab6 wildtype were generated by combination of LC ((vL1.1+CL); (SEQ.ID. NO:8)) and HC ((vH1.2+CH1); (SEQ.ID. NO:1)), ((vH1.1+CH1); (SEQ.ID. NO:2)) and ((vH1.0+CH1); (SEQ.ID. NO:3)) respectively.
(§2) Binding of Folate-conjugated Fabs to human and cyno CD3: Binding of E. coli produced and Folate-conjugated low-affinity variants of humanized anti-CD3 Fabs was performed as described in the above Examples.

For experiment [14], the target named is T1, human CD3. Description: cell binding, human CD3 (activated human PBMC); human CD3 (first number of the cell). On the procedure: as §1, §2
The target of experiment [15] is Folate receptor-alpha (FOLR1) (human) (UniProt P15328). The experiment in a line: cell binding, SKOV-3 cells with 50 nM SFA; through the folate moiety; SKOV-3 cells, with 50 nM SFA; binding through the conjugated folate.
The target of experiment [16] is T1, human CD3. Description: cell binding, human PBMC, 20 nM SFA present.
Experiment [17] addresses T1, human CD3. The experiment in a line: cell binding, human T-cells; assigned to the Bi5KPEG-BiFolate / BiFolate pair from Table 37.

T1 sequence (P07766 23-207): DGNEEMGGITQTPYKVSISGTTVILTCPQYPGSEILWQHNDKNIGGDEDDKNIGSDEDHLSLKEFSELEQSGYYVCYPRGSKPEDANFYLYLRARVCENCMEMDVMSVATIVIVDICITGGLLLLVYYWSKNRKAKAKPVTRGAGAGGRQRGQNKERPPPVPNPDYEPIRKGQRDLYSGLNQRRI

B1: Fab1-HK129-Folate (Fab, V domains shown)
VH: EVQLVESGGGLVQPGGSLRLSCAASGFTFNTYAMNWVRQAPGKGLEWVARIRSKYNNYATYYADSVKDRFTISRDDSKNILYLQMNSLKTEDTAVYYCVRHGNFGNSYVSWFAYWGQGTLVTVSS
VL: QAVVTQEPSLTVSPGGTVTLTCRSSTGAVTTSNYANWVQQKPGQAPRGLIGGTNKRAPGTPARFSGSLLGGKAALTLSGAQPEDEAEYYCALWYSNLWVFGGGTKLTVLG
modifications: pAF at HK129 (Kabat) conjugated to folate (oxime)
notes: From E. coli; also called Folate lead; parent control
Consider B1, for which the EC50 with human CD3 [1] worked out at 2.45 nM; with cyno CD3 [4], 1.41 nM; with human CD3 [6], 2.78 nM; with human CD3 [8], 2 nM; with cyno CD3 [10], 2.05 nM; with human CD3 [11] it was 1.69 nM. The EC50 turned out to be 3.3 nM with cyno CD3 [13], 2.31 nM in the experiment with human CD3 [14] and 44.5 nM in [15]. The values for the Bmax (with human CD3 [2]; with cyno CD3 [3]; in experiment [12]) were 30100, 25700 and 101000, respectively. The values for the Kd (with human CD3 [2]; with cyno CD3 [3]; in experiment [12]) were 1.53 nM, 2.69 nM and 1.97 nM, respectively. In addition, in experiment [5], the Affinity ratio (FRα:CD3) was 35. This molecule also had an FRα binding affinity in [7] of 59.6 nM. For the same molecule, the CD3 binding affinity in the experiment with human CD3 [9] was found to be 1.69 nM.

B2: Fab1-HK129-LL157-BiFolate-Bi5KPEG (Fab, V domains shown)
VH: EVQLVESGGGLVQPGGSLRLSCAASGFTFNTYAMNWVRQAPGKGLEWVARIRSKYNNYATYYADSVKDRFTISRDDSKNILYLQMNSLKTEDTAVYYCVRHGNFGNSYVSWFAYWGQGTLVTVSS
VL: QAVVTQEPSLTVSPGGTVTLTCRSSTGAVTTSNYANWVQQKPGQAPRGLIGGTNKRAPGTPARFSGSLLGGKAALTLSGAQPEDEAEYYCALWYSNLWVFGGGTKLTVLG
modifications: pAF at LL157 (Kabat) conjugated to a bifunctional linker carrying folate and 5K PEG (oxime); pAF at HK129 (Kabat) conjugated to a bifunctional linker carrying folate and 5K PEG (oxime)
notes: From E. coli; carries two folates and two 5K PEG; also called Fab1-HK129-LL157-Bi5KPEG-BiFolate
Consider B2, for which the figures for the Bmax (in the experiment with human CD3 [2]; with cyno CD3 [3]; in experiment [12]) were 15300, 13200 and 83100, respectively. Besides, the Kd amounted to 3.34 nM with human CD3 [2], 5.01 nM with cyno CD3 [3] and 2.28 nM in experiment [12]. Moreover, the results for the EC50 with human CD3 [8] and with human CD3 [16] were 7.5 nM and 5.7 nM, respectively. Further, the “fold lower binding affinity (vs the non-pegylated version)” value in the experiment with human CD3 [17] is roughly 5 fold.
